These results are taken from article PMC12637224, “The nonconserved integrin cytoplasmic region determines integrin subtype–specific characteristics by modulating talin1 binding kinetics” (The Journal of Biological Chemistry, 2025).

For assay [1], the target named is HaloTag-fused talin1 (HT-talin1) expressed in BAF/LFA1 cells (UniProt P26039). The assay can be described thus: single-molecule binding analysis (HT-Tln1 imaging in BAF/LFA1 cells). As to conditions: ICAM1+PMA, read off a plot.
Assay [2] addresses T1, HaloTag-fused talin1 (HT-talin1), endogenous knock-in in mouse primary T cells (mouse (endogenous knock-in in mouse T …, UniProt P26039 1-2541, HaloTag labelled with HT SaraFluor 650T Ligand)). The assay can be described thus: naive T cells, on PECAM1.
The target of assay [3] is T1, HaloTag-fused talin1 (HT-talin1), …. The assay can be described thus: Th2 cells, on PECAM1.
In assay [4] the target is T2, GST-fused talin1 FERM F2–F3 domain.
T2 chain: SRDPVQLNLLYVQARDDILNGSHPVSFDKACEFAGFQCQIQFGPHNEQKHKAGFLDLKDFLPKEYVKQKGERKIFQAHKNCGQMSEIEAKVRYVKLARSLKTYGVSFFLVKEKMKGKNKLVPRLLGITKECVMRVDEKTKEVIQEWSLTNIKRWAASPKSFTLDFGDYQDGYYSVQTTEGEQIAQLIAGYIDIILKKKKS
The assay can be described thus: BLI. (In BLI a coated tip is dipped into the sample, and binding shifts an interference pattern.)

Assay [5] shares this target. The assay can be described thus: BLI.
In assay [6] the target is T3, GST-fused talin1 FERM F2–F3 domain (GST carrier omitted. F2-F3 limits are not given; 206-405 is the usual talin1 F2-F3 construct. Mouse is assumed because the other talin1 constructs in the paper are mouse.).
T3 chain: T2 chain
The assay can be described thus: BLI; Octet RH96; GST-talin1 FERM F2–F3 (10 μg/ml) immobilized on Octet GST Biosensors; synthetic integrin CT peptides at 4.9, 14.8, 44.4 and 133 μM as analytes in 25 mM Tris–HCl, 150 mM NaCl, 0.05% Triton X-100, pH 7.5; binding to GST alone subtracted. The following applies: both partners purified.

Assay [7] deals with T1, HaloTag-fused talin1 (HT-talin1), …. Briefly: activated T cells, on ICAM1.
Assay [8] shares this target. The assay can be described thus: Th2 cells, on ICAM1.
For assay [9] the target is unchanged. The assay can be described thus: naive T cells, on ICAM1.
Assay [10] shares this target. Briefly: naive T cells, on ICAM1. The source holds these as a separate data set.
Where [11] appears, read: β2β7: n = 1453, β2β7-NND: n = 1726, parent: est. 19.

Sequence of HaloTag-fused talin1 (HT-talin1) expressed in BAF/LFA1 cells (P26039 whole entry, looked up, the tested form may be a part): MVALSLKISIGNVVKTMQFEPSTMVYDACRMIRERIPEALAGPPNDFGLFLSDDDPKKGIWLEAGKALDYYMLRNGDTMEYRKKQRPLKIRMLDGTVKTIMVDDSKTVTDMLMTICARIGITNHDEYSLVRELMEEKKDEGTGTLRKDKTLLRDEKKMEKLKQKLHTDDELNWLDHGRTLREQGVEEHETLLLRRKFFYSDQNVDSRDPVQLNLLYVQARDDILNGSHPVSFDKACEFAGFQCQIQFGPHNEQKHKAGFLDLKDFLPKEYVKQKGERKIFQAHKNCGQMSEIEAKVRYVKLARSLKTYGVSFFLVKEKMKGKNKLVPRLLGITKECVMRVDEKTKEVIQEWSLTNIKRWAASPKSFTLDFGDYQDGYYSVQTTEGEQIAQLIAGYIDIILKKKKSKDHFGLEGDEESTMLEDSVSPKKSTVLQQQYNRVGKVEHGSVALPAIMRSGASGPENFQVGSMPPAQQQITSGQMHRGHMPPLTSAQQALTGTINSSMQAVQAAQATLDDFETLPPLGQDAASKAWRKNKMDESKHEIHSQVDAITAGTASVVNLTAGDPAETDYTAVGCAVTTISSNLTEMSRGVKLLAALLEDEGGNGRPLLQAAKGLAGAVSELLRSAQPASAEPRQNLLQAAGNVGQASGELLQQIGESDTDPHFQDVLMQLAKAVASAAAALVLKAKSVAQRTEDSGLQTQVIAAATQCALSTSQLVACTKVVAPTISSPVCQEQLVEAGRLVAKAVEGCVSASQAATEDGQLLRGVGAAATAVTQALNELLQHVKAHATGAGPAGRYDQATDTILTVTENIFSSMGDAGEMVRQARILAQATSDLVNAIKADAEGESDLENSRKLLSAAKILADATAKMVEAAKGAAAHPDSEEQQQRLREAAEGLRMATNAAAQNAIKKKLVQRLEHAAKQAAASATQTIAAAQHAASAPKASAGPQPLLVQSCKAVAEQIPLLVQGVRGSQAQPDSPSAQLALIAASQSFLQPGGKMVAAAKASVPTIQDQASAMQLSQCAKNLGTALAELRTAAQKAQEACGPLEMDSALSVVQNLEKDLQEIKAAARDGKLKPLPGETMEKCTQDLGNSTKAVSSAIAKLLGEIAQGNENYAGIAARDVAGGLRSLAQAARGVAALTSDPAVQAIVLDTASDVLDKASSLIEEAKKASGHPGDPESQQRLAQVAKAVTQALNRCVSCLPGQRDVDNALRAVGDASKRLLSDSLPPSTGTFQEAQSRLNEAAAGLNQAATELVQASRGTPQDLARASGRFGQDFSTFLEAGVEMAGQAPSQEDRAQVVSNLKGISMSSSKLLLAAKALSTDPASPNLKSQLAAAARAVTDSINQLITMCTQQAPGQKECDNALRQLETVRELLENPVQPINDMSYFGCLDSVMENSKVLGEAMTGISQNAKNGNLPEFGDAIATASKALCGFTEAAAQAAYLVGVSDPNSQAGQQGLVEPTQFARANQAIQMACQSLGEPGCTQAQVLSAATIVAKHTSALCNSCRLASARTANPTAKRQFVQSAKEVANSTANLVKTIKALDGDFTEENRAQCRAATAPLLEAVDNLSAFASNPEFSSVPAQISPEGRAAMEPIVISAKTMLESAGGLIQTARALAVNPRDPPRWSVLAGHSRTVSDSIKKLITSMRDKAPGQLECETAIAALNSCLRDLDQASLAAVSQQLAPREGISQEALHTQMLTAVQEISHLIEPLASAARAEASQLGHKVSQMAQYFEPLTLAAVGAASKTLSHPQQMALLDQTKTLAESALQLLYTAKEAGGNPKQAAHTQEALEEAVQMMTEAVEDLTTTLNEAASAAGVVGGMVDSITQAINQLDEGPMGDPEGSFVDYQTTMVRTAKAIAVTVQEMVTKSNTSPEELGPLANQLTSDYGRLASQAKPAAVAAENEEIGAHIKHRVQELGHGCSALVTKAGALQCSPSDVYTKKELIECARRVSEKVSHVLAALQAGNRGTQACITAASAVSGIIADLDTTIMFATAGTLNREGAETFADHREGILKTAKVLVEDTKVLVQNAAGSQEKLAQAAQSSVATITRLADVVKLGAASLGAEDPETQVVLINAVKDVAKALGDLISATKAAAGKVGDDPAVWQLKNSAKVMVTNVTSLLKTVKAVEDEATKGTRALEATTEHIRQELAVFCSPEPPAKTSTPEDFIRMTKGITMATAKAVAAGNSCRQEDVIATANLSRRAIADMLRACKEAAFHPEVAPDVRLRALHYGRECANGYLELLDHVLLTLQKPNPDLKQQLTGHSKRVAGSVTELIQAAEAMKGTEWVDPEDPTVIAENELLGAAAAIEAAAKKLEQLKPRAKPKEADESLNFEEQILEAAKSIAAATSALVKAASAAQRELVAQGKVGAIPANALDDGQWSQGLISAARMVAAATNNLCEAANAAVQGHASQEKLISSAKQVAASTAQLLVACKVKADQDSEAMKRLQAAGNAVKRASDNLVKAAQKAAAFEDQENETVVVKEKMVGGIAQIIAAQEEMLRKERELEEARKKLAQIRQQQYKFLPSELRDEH

With “chimeric LFA1 αLα4/β2β7 (cytoplasmic tails of αL and β2 replaced with those of α4 and β7) (from UniProt P13612;P26010) KQDS to NND (β7 WN linker)”, the other: binding frequency (events/area) in assay [1] (β2β7: n = 22, β2β7-NND: n = 14, parent: est. 1.2) was 4.7 µm-2. In addition, in assay [1] (setting [11]), the other: frequency of binding time 1 to 10 s (yellow segment) was 23% and the other: frequency of binding time, top of stacked bar (1 to 10 s plus >10 s) was determined as 24%.

B1: αV/β3 integrin, endogenous on mouse primary T cells (receptor)
chain 1: FNLDVESPAEYAGPEGSYFGFAVDFFEPSTSSRMFLLVGAPKANTTQPGIVEGGQVLKCECSSSRRCQPIEFDSTGNRDYAKDDPLEFKSHQWFGASVRSKQDKILACAPLYHWRTEMKQEREPVGTCFLQDGTKTVEYAPCRSKNIDADGQGFCQGGFSIDFTKADRVLLGGPGSFYWQGQLISDQVAEIISKYDPNVYSIKYNNQLATRTAQAIFDDSYLGYSVAVGDFNGDGIEDFVSGVPRAARTLGMVYIYDGKNMSSLHNFTGEQMAAYFGFSVAATDINGDDYADVFIGAPLFMDRGSDGKLQEVGQVSVSLQRAVGDFQTTKLNGFEVFARFGSAIAPLGDLDQDGFNDIAIAAPYGGEDKKGLVYIFNGRSTGLNSVPSQILEGQWAAQSMPPSFGYSMKGATDVDRNGYPDLVVGAFGVDRAVLYRARPVVTVNAGLEVYPSILNQDNKICPLPGTALKVSCFNVRFCLKADGKGTLPRKLHFQVELLLDKLKQKGAIRRALFLHNRSPVHSKTMTVFRGGQMQCEELVAYLRDESEFRDKLTPITIFMEYRLDQRTAADATGLQPILNQFTPANVSRQAHILLDCGEDNVCKPKLEVSVNSDQKKIYIGDDNPLTLTVKAQNQGEGAYEAELIVSIPPQADFIGVVRNNEALARLSCAFKTENQTRQVVCDLGNPMKAGTQLLAGLRFSVHQQSEMDTSVKFDLKIQSSNSFDNVSPVVSYKVDLAVLAAVEIRGVSSPDHIFLPIPNWEYKENPETEEDVGPIVQHIYELRNNGPSSFSKAILNLQWPYKYNNNTLLYILHYDIDGPMNCTADTEINPLRIKTPEKNDTAAAGQGERNHLITKRDLTLREGDVHTLGCGIAKCLQITCQVGRLDRGKSAILYVKSLLWTETFMNKENQNHSYSLKSSASFNIIEFPYKNLPIEDLFNSTLVTTNITWGIQPAPMPVPVWVIILAVLAGLLLLAVLVFVMYRMGFFKRVRPPQEEQEREQLQPHENGEGNSET
chain 2: ESNICTTRGVNSCQQCLAVSPVCAWCSDETLSQGSPRCNLKENLLKDNCAPESIEFPVSEAQILEARPLSSKGSGSSAQITQVSPQRIALRLRPDDSKIFSLQVRQVEDYPVDIYYLMDLSFSMKDDLSSIQTLGTKLASQMRKLTSNLRIGFGAFVDKPVSPYMYISPPQAIKNPCYNMKNACLPMFGYKHVLTLTDQVSRFNEEVKKQSVSRNRDAPEGGFDAIMQATVCDEKIGWRNDASHLLVFTTDAKTHIALDGRLAGIVLPNDGHCHIGTDNHYSASTTMDYPSLGLMTEKLSQKNINLIFAVTENVVSLYQNYSELIPGTTVGVLSDDSSNVLQLIVDAYGKIRSKVELEVRDLPEELSLSFNATCLNNEVIPGLKSCVGLKIGDTVSFSIEAKVRGCPQEKEQSFTIKPVGFKDSLTVQVTFDCDCACQAFAQPSSPRCNNGNGTFECGVCRCDQGWLGSMCECSEEDYRPSQQEECSPKEGQPICSQRGECLCGQCVCHSSDFGKITGKYCECDDFSCVRYKGEMCSGHGQCNCGDCVCDSDWTGYYCNCTTRTDTCMSTNGLLCSGRGNCECGSCVCVQPGSYGDTCEKCPTCPDACSFKKECVECKKFNRGTLHEENTCSRYCRDDIEQVKELTDTGKNAVNCTYKNEDDCVVRFQYYEDTSGRAVLYVVEEPECPKGPDILVVLLSVMGAILLIGLATLLIWKLLITIHDRKEFAKFEEERARAKWDTANNPLYKEATSTFTNITYRGT
With B1, the koff (in general, the rate constant with which the complex falls apart) worked out at 0.326 s⁻¹ in assay [2] and 0.264 s⁻¹ in [3].

B2: synthetic integrin β7 cytoplasmic tail peptide (peptide)
peptide: RLSVEIYDRREYSRFEKEQQQLNWKQDSNPLYKSAITTTINPRFQEADSPTL
modifications: GST carrier omitted. F2-F3 limits are not given; 206-405 is the usual talin1 F2-F3 construct. Mouse is assumed because the other talin1 constructs in the paper are mouse.
Consider B2, for which the koff in assay [4] came out at 0.00597 s⁻¹. Also, binding in [5] was put at a Kd of 124 µM.

B3: synthetic integrin β1 cytoplasmic tail peptide (peptide)
peptide: KLLMIIHDRREFAKFEKEKMNAKWDTGENPIYKSAVTTVVNPKYEGK
modifications: GST carrier omitted. F2-F3 limits are not given; 206-405 is the usual talin1 F2-F3 construct. Mouse is assumed because the other talin1 constructs in the paper are mouse.
In turn, B3 had a koff in [4] of 0.00509 s⁻¹. Moreover, in assay [5], the Kd (commonly the equilibrium constant for the complex coming apart) was determined as 90.2 µM.

B4: synthetic integrin β2 cytoplasmic tail peptide (peptide)
peptide: KALIHLSDLREYRRFEKEKLKSQWNNDNPLFKSATTTVMNPKFAES
modifications: GST carrier omitted. F2-F3 limits are not given; 206-405 is the usual talin1 F2-F3 construct. Mouse is assumed because the other talin1 constructs in the paper are mouse.
B4 gave a koff in assay [4] of 0.00398 s⁻¹. In assay [5], this molecule gave a Kd of 43.5 µM.

B5: synthetic integrin β2 cytoplasmic tail peptide (peptide, UniProt P05107 724-769, looked up)
peptide: B4 peptide
notes: integrin β2 cytoplasmic tail peptide; also called β2 integrin; β2-CT; source: synthetic peptide (GenScript)
In the case of B5, in [6], the “fold higher affinity than m25 (β7 peptide)” value came out at 3 fold, the “fold higher affinity than m26 (β3 peptide)” value was 3 fold and the “fold higher affinity than m27 (β1 peptide)” value was 2 fold.

B6: synthetic integrin β3 cytoplasmic tail peptide (peptide)
peptide: KLLITIHDRKEFAKFEEERARAKWDTANNPLYKEATSTFTNITYRGT
modifications: GST carrier omitted. F2-F3 limits are not given; 206-405 is the usual talin1 F2-F3 construct. Mouse is assumed because the other talin1 constructs in the paper are mouse.
As for B6, the koff in assay [4] amounted to 0.00458 s⁻¹. Moreover, in assay [5], the Kd stood at 133 µM.

B7: LFA1 (αL/β2 integrin), endogenous on mouse primary T cells (receptor)
chain 1: YNLDTRPTQSFLAQAGRHFGYQVLQIEDGVVVGAPGEGDNTGGLYHCRTSSEFCQPVSLHGSNHTSKYLGMTLATDAAKGSLLACDPGLSRTCDQNTYLSGLCYLFPQSLEGPMLQNRPAYQECMKGKVDLVFLFDGSQSLDRKDFEKILEFMKDVMRKLSNTSYQFAAVQFSTDCRTEFTFLDYVKQNKNPDVLLGSVQPMFLLTNTFRAINYVVAHVFKEESGARPDATKVLVIITDGEASDKGNISAAHDITRYIIGIGKHFVSVQKQKTLHIFASEPVEEFVKILDTFEKLKDLFTDLQRRIYAIEGTNRQDLTSFNMELSSSGISADLSKGHAVVGAVGAKDWAGGFLDLREDLQGATFVGQEPLTSDVRGGYLGYTVAWMTSRSSRPLLAAGAPRYQHVGQVLLFQAPEAGGRWNQTQKIEGTQIGSYFGGELCSVDLDQDGEAELLLIGAPLFFGEQRGGRVFTYQRRQSLFEMVSELQGDPGYPLGRFGAAITALTDINGDRLTDVAVGAPLEEQGAVYIFNGKPGGLSPQPSQRIQGAQVFPGIRWFGRSIHGVKDLGGDRLADVVVGAEGRVVVLSSRPVVDVVTELSFSPEEIPVHEVECSYSAREEQKHGVKLKACFRIKPLTPQFQGRLLANLSYTLQLDGHRMRSRGLFPDGSHELSGNTSITPDKSCLDFHFHFPICIQDLISPINVSLNFSLLEEEGTPRDQKVGRAMQPILRPSIHTVTKEIPFEKNCGEDKKCEANLTLSSPARSGPLRLMSSASLAVEWTLSNSGEDAYWVRLDLDFPRGLSFRKVEMLQPHSRMPVSCEELTEGSSLLTKTLKCNVSSPIFKAGQEVSLQVMFNTLLNSSWEDFVELNGTVHCENENSSLQEDNSAATHIPVLYPVNILTKEQENSTLYISFTPKGPKTQQVQHVYQVRIQPSAYDHNMPTLEALVGVPWPHSEDPITYTWSVQTDPLVTCHSEDLKRPSSEAEQPCLPGVQFRCPIVFRREILIQVTGTVELSKEIKASSTLSLCSSLSVSFNSSKHFHLYGSKASEAQVLVKVDLIHEKEMLHVYVLSGIGGLVLLFLIFLALYKVGFFKRNLKEKMEADGGVPNGSPPEDTDPLAVPGEETKDMGCLEPLRESDKD
chain 2: QECTKYKVSSCRDCIQSGPGCSWCQKLNFTGPGEPDSLRCDTRAQLLLKGCPADDIMDPRSIANPEFDQRGQRKQLSPQKVTLYLRPGQAAAFNVTFRRAKGYPIDLYYLMDLSYSMLDDLNNVKKLGGDLLQALNEITESGRIGFGSFVDKTVLPFVNTHPEKLRNPCPNKEKACQPPFAFRHVLKLTDNSNQFQTEVGKQLISGNLDAPEGGLDAIMQVAACPEEIGWRNVTRLLVFATDDGFHFAGDGKLGAILTPNDGRCHLEDNMYKRSNEFDYPSVGQLAHKLSESNIQPIFAVTKKMVKTYEKLTEIIPKSAVGELSDDSSNVVQLIKNAYYKLSSRVFLDHSTLPDTLKVTYDSFCSNGASSIGKSRGDCDGVQINNPVTFQVKVMASECIQEQSFVIRALGFTDTVTVQVRPQCECQCRDQSREQSLCGGKGVMECGICRCESGYIGKNCECQTQGRSSQELERNCRKDNSSIVCSGLGDCICGQCVCHTSDVPNKEIFGQYCECDNVNCERYNSQVCGGSDRGSCNCGKCSCKPGYEGSACQCQRSTTGCLNARLVECSGRGHCQCNRCICDEGYQPPMCEDCPSCGSHCRDNHTSCAECLKFDKGPFEKNCSVQCAGMTLQTIPLKKKPCKERDSEGCWITYTLQQKDGRNIYNIHVEDSLECVKGPNVAAIVGGTVVGVVLIGVLLLVIWKALTHLTDLREYRRFEKEKLKSQWNNDNPLFKSATTTVMNPKFAES
Regarding B7, the koff in [7] amounted to 0.279 s⁻¹; in assay [8], 0.17 s⁻¹; in [9], 0.316 s⁻¹; in assay [10], 0.288 s⁻¹.
